Test results published in patent publication US10111948B2, “Synthetic hapten carrier compositions and methods” (TRIA BIOSCIENCE CORP., priority 2014, dated 2018).

B1: TCC^Nic4: trimeric coiled coil of three SEQ ID NO:13 monomers conjugated with average 4 nicotine 6-hexanoic acid per monomer (conjugate)
chain: KKIEKRIEKIEKRIKKIEKRIKKIEKRIKKIEKRIKKAKFVAAWTLKAAAYQNPTTYISVK
modifications: also: trimer (trimeric coiled coil of three monomers), ~4 nicotine 6-hexanoic acid haptens per monomer (sites not given here)

Tests used:
[1] = system: antisera isolated from TCC^Nic4 immunized mice; assay: competitive ELISA for specificity of nicotine binding by antisera
Procedure: FIG. 6 presents data showing specificity of nicotine binding by antisera isolated from TCC^Nic4 immunized mice determined by competitive ELISA for nicotine, cotinine, and acetylcholine.
Antibody affinity and the nicotine binding capacity of the anti-nicotine antibodies evoked in TCC^Nic4-immunized mice were examined. Mice were immunized with 2.5 μg TCC^Nic4 on days 0, 14, and 146, and antisera were obtained. Nicotine binding to antisera isolated from TCC^Nic4 immunized mice was determined by competitive ELISA for nicotine, cotinine, and acetylcholine.

[2] = relative Kd of serum IgG by competitive ELISA; type: binding, mice
Procedure: FIGS. 7A-B illustrate antibody avidities of antisera from mice immunized with TCC conjugated to nicotine.
Relative Kd values of serum IgG were determined by competitive ELISA. Dilutions of antiserum were prepared and incubated with soluble nicotine (0.0001-100 μM). After equilibrium was achieved, binding to bovine serum albumin (BSA) conjugated to nicotine was measured. […] Each sample was assayed in triplicate wells along with standard control sera, and the mean midpoint and endpoint titers (+/−SEM) were determined.

[3] = system: C57BL/6 mice; assay: anti-nicotine antibody titers by ELISA in immunized C57BL/6 mice; type: in vivo
Procedure: FIGS. 3A-B illustrate anti-nicotine antibody titers as measured by ELISA. C57Bl/6 mice (n=5/group) were immunized (days 0, 14, and 146) with 2.5 μg of the trimeric coiled-coil peptide vaccine comprising peptide monomers with 16 lysines conjugated to an average of 4 nicotines per monomer. Control groups were administered KLH-Nic22 or PBS. Vaccines were formulated with (A) Alum adjuvant or (B) GLA-SE adjuvant. Sera were collected at the indicated times and assayed for anti-nicotine antibodies by ELISA.
FIG. 5 illustrates titer to nicotine in mice (C57Bl/6 mice (n=5/group)) immunized with the indicated doses of TCC^Nic4 plus GLA-SE adjuvant. Day 35 sera were assayed for anti-nicotine antibodies by ELISA.
FIGS. 10A-B show comparative antibody responses between TCC^Nic4 and KLH^Nic100. C57Bl/6 mice were immunized with each conjugate in the absence and presence of GLA-SE adjuvant. (A) Serum was assayed for anti-nicotine antibody responses by ELISA. (B) Data showing serum sequestration of nicotine. Percent inhibition of nicotine entry into the brain is indicated.
Trimeric coiled coil structures comprising three peptide monomers having an amino acid sequence set forth in SEQ ID NO:13 were conjugated as described above with nicotine to provide constructs comprising an average of 0.6, 4, and 14 nicotine molecules per monomeric peptide. […] Sera were collected periodically for approximately 20 weeks after the primary immunization, and anti-nicotine antibody titers were determined by ELISA.
In the same experiment, groups of mice were immunized with three non-TCC nicotine carriers, FGK4.5^nic19 and IgG2^nic17 and KLH^nic22. […] Sera were collected and measured for anti-nicotine and anti-carrier antibody titers by ELISA using, respectively, nicotine conjugated BSA, non-conjugated trimeric coiled-coil peptide, and non-conjugated KLH, FGK4.5, and IgG2 carriers used in the respective vaccine composition. Each sample was assayed in triplicate wells along with standard control sera, and the mean midpoint and endpoint titers (+/−SEM) were determined. […]

[4] = system: mice; assay: nicotine distribution in serum/plasma and brain after nicotine injection in immunized mice; type: in vivo
Procedure: FIGS. 9A-C show the levels of nicotine in sera and brains of mice (n=5/group) immunized with PBS, TCC^Nic4 with and without alum and GLA-SE adjuvants, or KLH conjugated to nicotine (KLH^Nic22) with and without alum and GLA-SE adjuvants. Immunized mice were injected with a dose of nicotine tartrate equivalent to the nicotine in 3 cigarettes (1.2 μg). Five minutes later the mice were sacrificed, tissues removed, and the amount of nicotine in (A) sera and (B) brain were measured by mass spectrometry. (C) The calculated percent inhibition of nicotine entry into the brain is shown.
FIGS. 10A-B show comparative antibody responses between TCC^Nic4 and KLH^Nic100. C57Bl/6 mice were immunized with each conjugate in the absence and presence of GLA-SE adjuvant. […]
To test antibody function, TCC^Nic4 or KLH^Nic22 (non-adjuvanted; +Alum; or +GLA-SE) immunized mice were injected with free nicotine equivalent to 3 cigarettes. […] Nicotine was extracted from the plasma and brain tissues and then quantified by LC/MS. The amounts of nicotine in plasma (ng/ml) and brain (ng/g) were determined. […] Data were analyzed using GraphPad Prism (San Diego, Calif.). Statistically significant differences between 2 groups were calculated by Student's 2-tailed t-test on log transformed data and between 3 or more groups by 1-factor analysis of variance (ANOVA) followed by post-hoc analysis. […]

[5] = serum nicotine binding capacity (inhibition RIA); details: serum of immunized mice
Procedure: Kd values were used to calculate total antibody concentrations according to the law of mass action equation: Kd=[Nic][Ig]/[Nic−Ig].
Plasma was assayed for nicotine binding capacity at various times following immunization. Plasma aliquots were spiked with increasing nicotine levels (0.0001-10 μM) (serum nicotine levels in heavy smokers is 100 ng/ml or 0.617 μM) and then subjected to inhibition RIA (with H^3-Nicotine as the tracer and non-radiolabeled nicotine as the inhibitor) to calculate the total nicotine binding IgG in serum (see, e.g., Moreno et al., 2010, Mol. Pharm. 7:431-41; Muller, 1983, Methods Enzymol. 92:589-601). Immobilized protein A was used to capture IgGs from the serum to separate them from free nicotine. Aliquots of both the protein A eluate and the serum supernatant were subjected to liquid scintillation counting to quantify the amount of tracer in each fraction.

[6] = system: C57BL/6 mice; assay: nicotine-induced hypoactivity (locomotor activity, open field); type: in vivo; details: 10 daily 10 μg nicotine injections, 7 day rest, 10 μg challenge
Procedure: C57Bl/6 mice were immunized with TCC^Nic4 and KLH^Nic100 in the absence and presence of GLA-SE adjuvant. Immunized mice were sensitized to nicotine with 10 daily injections (10 μg). Following a 7 day rest period, mice were challenged with nicotine (10 μg), and locomoter activity was monitored using infrared beam-equipped open field chambers. The PBS-immunized group was not challenged with nicotine.
Furthermore, mice immunized with TCC^Nic4 and KLH^Nic100 with and without GLA-SE as described above were evaluated for nicotine-induced hypoactive behavior with nicotine challenges as described in Rosenberg et al. (2013, Hum. Gene Ther. 24:595-603). Immunized mice were sensitized with 10 daily injections of 10 μg of nicotine. After a 7 day rest period, the mice were then challenged with 10 μg of nicotine, and locomotor activity was monitored using infrared beam-equipped open field chambers. The mice immunized with PBS were not challenged with nicotine.

| Molecule | binding by antibodies induced by TCC^Nic4 immunization ([1]; competitive ELISA) | IC50 relative to nicotine ([1]; competitor in competitive ELISA) [fold] | antibody affinity compared to KLH^Nic22 ([2]; in the absence of adjuvant) | antibody affinity relative to antibodies evoked by KLH^Nic22 ([2]; in the presence of GLA-SE adjuvant) | Kd ([2]; in the presence of GLA-SE adjuvant, read-out: affinity of the antibodies evoked by immunization (Kd)) [nM] | anti-nicotine antibody titer compared with KLH^Nic22 ([3]; 2.5 μg on days 0, 14, 146, FIG. 3) | anti-nicotine antibody titers ([3]; adjuvanted (Alum or GLA-SE), 2.5 μg on days 0, 14, 146, sera for approx. 20 weeks) | dose achieving the maximum anti-nicotine antibody response ([3]; adjuvanted with GLA-SE, doses 0.1, 0.5, 1, 2.5 μg, day 35 sera) [ng] | nicotine in sera and brain, immunogen compared with KLH^Nic22 ([4]; combined with either adjuvant (Alum or GLA-SE), 5 min after nicotine injection) | circulating nicotine prevented from entering the brain ([4]; plus GLA-SE adjuvant, nicotine dose equivalent to 3 cigarettes, 5 min) | nicotine binding capacity compared with control KLH conjugate [5] | specificity of antibodies induced by immunization ([1]; 2.5 μg on days 0, 14, 146) | hypoactivity behavior after nicotine challenge ([6]; non-adjuvanted vaccine) | prevention of nicotine sensitization and hypoactivity behavior ([6]; with GLA-SE adjuvant) |
| --- | --- | --- | --- | --- | --- | --- | --- | --- | --- | --- | --- | --- | --- | --- |
| CN1C(=O)CC[C@H]1c1cccnc1 [cotinine] | did not bind physiological concentrations | 1000 | – | – | – | – | – | – | – | – | – | – | – | – |
| B1 | – | – | higher affinity antibodies | an order of magnitude greater | ~1 | consistently greater | robust antibody titers | ≤ 100 | superior immunogen | greater than 90% | significantly larger | nicotine-specific | hypoactivity observed | appeared equivalent in preventing nicotine sensitization and subsequent hypoactivity behavior |
